This is an account of results in article PMC12399645 (Frontiers in Immunology, 2025).

The chains are these.
B1: KBA2404 (antibody, V domains shown)
VH: EVQLVESGGGLVQPGGSLRLSCAASGFTVSSNYMSWVRQAPGKGLECVSVIYSGGSTYYGDSVKGRFTISRDNSKNRLYLQMHSLRAEDTAVYFCARIVSDAFDIWGQGTMVTVSS
VL: DIQMTSLLSPLSASVGDRVTITCRASQNINRWLAWYQQKPGKAPKLLIYMASNLESGVPSRFSGSGSGTEFSLTISSLQPDDLATYYCQQYNSYWTSYTFGQGTKLEIK
notes: IgG1 format; copies: 2 + 2
B2: KBA2403 (antibody, V domains shown)
VH: EVQLVESGGGLVQPGGSLRLSCVASGIIVSRNYMNWVRQAPGKGLEWVSVLYSGGTTEYADSVKGRFTISRDNSKNTLFLQMSSLRVEDTAVYFCAREGYGMDVWGQGATVTVSS
VL: DIQLTQSPSFLSASVGDRVTITCRAGQGISTYLAWYQQKPGKAPKLLIYSASTLQSGVPSRFSGSGSGTEFTLTISSLQPEDFATYYCQQLNNYPPAFGGGTKVEIK
notes: IgG1 format; copies: 2 + 2
B3: KBA2401 (antibody, V domains shown)
VH: EVQLVQSGAEVKKPGESLKISCKGSGYTFSYFWIGWVRQMPGKGLEWMGIIYPGDSDTRYSPSFQGQVTISADKSISTAYLQWSSLKASDTAMYYCARVGIEMATTYFGFWGQGTMVTVSS
VL: SYVLTQPPSVSVAPGQTARITCGGNNIGSKSVHWYQQRPGQAPVLVVYDDSDRPSEIPERFSGSSSGNTATLTISTVEAGDEADYYCQVWDSSTDHPGVFGGGTKLTVL
notes: copies: 2 + 2
B4: KBA2402 (antibody, V domains shown)
VH: EVQLVESGGGLVQPGRSLGLSCTTSGFTFGDFAMSWFRQAPGKGLEWVGFIRSKAYGGATQYAASVKGRFTISRDDSKSIAYLQMNSLKTEDTAVYYCTRAGEMATTVNRQFDYWGQGTLVTVSS
VL: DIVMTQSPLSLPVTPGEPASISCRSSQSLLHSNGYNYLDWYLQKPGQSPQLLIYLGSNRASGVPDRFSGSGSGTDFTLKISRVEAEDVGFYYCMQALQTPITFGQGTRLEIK
notes: copies: 2 + 2
B5: KBA2402_EVO17 (antibody, V domains shown)
VH: EVQLVESGGGLVQPGRSLGLSCTTSGFTFGDFAMSWFRQAPGKGLEWVGFIRSKAYGGATQYAASVKGRFTISRDDSKSIAYLQMNSLKTEDTAVYYCTRAGEMATTVNRQFDYWGQGTLVTVSS
VL: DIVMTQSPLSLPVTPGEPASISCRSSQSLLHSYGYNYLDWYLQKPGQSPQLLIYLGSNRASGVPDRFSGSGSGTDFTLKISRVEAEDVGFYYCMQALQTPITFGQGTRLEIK
notes: copies: 2 + 2
B6: KBA2402_EVO14 (antibody, V domains shown)
VH: EVQLVESGGGLVQPGRSLGLSCTTSGFTFGDFAMSWFRQAPGKGLEWVGFIRSKAYGGATQYAASVKGRFTISRDDSKSIAYLQMNSLKTEDTAVYYCTRAGEMATTVNRQFDYWGQGTLVTVSS
VL: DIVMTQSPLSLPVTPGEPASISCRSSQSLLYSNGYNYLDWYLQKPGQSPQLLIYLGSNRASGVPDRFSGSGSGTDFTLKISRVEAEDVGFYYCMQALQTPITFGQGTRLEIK
notes: copies: 2 + 2

In the first experiment the target is SARS-CoV-2 spike trimer protein, Wild-type (SARS-CoV-2, original Wild-type …, UniProt P0DTC2, biotin on the Avi-tag (BirA ligase)). In words: ELISA. As to conditions: both partners purified. A general note: ELISA stands for enzyme-linked immunosorbent assay.
For B1, the binding result is on record as “binds”.

Take B2: the binding result is listed as “binds”.

Turning to B3, the binding result is given as “binds”.

As to B4, the binding result is “binds”.

The experiment is the same for the next values; noted with them: one partner purified.
Take B5: the binding result is listed as “binds”.

As to B6, the binding result is listed as “binds”.
